B1: 43586p1.1.C2 (scFv, V domains shown)
VH: EVQLLESGGGLVQPGGSLRLSCAASGFTFSDYYMNWVRQAPGKGLEWVSSINWNGGTTYYADSVKGRFTISRDNSRNTLYLQMNSLRAEDTAVYYCAKDQNWNFYYGMDVWGQGTTVTVSS
VL: QSVLTQPPSASGTPGQRVTISCSGGSSNIGTNYVSWYQQLPGTAPKLLLYKEDQRPSGVPDRFSGSKSGTSASLAISGLQSEDEADYYCATWDGSLRSWVFGGGTKLTVL
B2: 43586p1.1.A7 (scFv, V domains shown)
VH: EVQLLESGGGLVQPGGSLRLSCAASGFTFTSYAMSWVRQAPGKGLEWVAGISYDGSIQYYADSVKGRLTISRDNSKNTLNLQMNSLRAGDTAVYYCAKHLTGGTTDYYYYGMDVWGQGTTVTVSS
VL: QSVMTQPPSASGTPGQRVTISCSGSSSNIGTNRYVHWYKQVPGTAPKLLIYGNHQRPSGVPDRFSGSKSGTSASLAISGLQSEDEADYYCAAWDGSLSGWVFGGGTKLTVL
B3: 43352p1.A11 (scFv, V domains shown)
VH: DVQLVESGGGVVRPGESLRLSCAASGFTFSSHAMSWVRQAPGEGLEWVSLTSGNGVSAYYADSVKGRFTISRDNSKNTLYLQMNSLSAEDTAIYYCARGTYLISFFDYWGLGTLVTVSS
VL: QSVLTQPPSASGTPGQRVTISCSGISAKIGNNYVSWYQQLPGTAPKLLIYFNNQRPSGVPDRFSGSKSGTSASLAISGLQSEDEADYYCASWDDSLNAWLFGGGTKLTVL
B4: 43352p1.D11 (scFv, V domains shown)
VH: DVQLVESGGGVVRPGESLRLSCAASGFTFSSHAMSWVRQAPGEGLEWVSLISGNGVSAYYADSVKGRFTISRDNSKNTLYLQMNSLSAEDTAIYYCARGTYLISFFDYWGLGTLVTVSS
VL: QSVLTQPPSASGTPGQRVTISCSGISAKIGNNYVSWYQQLPGTAPKLLIYFNNQRPSGVPDRFSGSKSGTSASLAISGLQSEDEADYYCASWDDSLNAWLFGGGTKLTVL
B5: 43645p1.C11 (scFv, V domains shown)
VH: EVQLLESGGGLVQPGGSLRPSCATSGFTFSSYWMSWVRQAPGKGLEWVSGIHISDSTYYADSVKGRFTISRDNSKNTLYLQMNSLRAEDTAVYYCAKGHTVLQYGMDVWGQGTTVTVSS
VL: QSGLTQPPSASGTPGQRVTISCSGDISNTRNNYVSWYQQLPGTAPKLLIYGNHQRPSGVPDRFSGSKSATSASLAISGLQSEDEADYYCGTWDNTLNAWVFGGGTKLTVL
B6: 43586p1.1.G9 (scFv, V domains shown)
VH: EVQLLESGGGLVQPGGSLRLSCAASGFTFTTYAMSWVRQAPGKGLEWVAGISYIGSDKYYADSVKGRLTISRDNSKNTLYLQMDSLRAEDTAVYYCAKHLTGGTTDYYYYGMDVWGQGTTVTVS
VL: QSVLTQPPSASGTPGQRVTISCSGSTSNIGTSRYVHWYQHLPGTAPKLLIYLDSQRPSGVPDRFSASKSGTSASLAISGLQSEDEADYYCSAWDDSLSAWVFGGGTKLTVL
B7: 43586p2.B02 (scFv, V domains shown)
VH: EVQLLESGGGLVQPGGSLRLSCAASGFTFTSYAMSWVSQAPGKGLEWVAGISYDGSSKYYADSVKGRLTISRDNSKNTLYLQMNSLRAEDTAIYYCAKHLTGGTTDYYYYAMDVWGQGTTVTVSS
VL: QSVLTQPPSASGTPGQRVTISCSGSRSNIGTNRYVHWYQQLPGTAPKLLIYGNHQRPSGVPDRFSGSKSGTSASLAISGLQSEDEADYYCAAWDDSLSAWVFGGGTKLTVL
B8: 43586p2.C09 (scFv, V domains shown)
VH: EVQLLESGGGLVQPGGSLRLSCTASGFTFTSYAMSWVSQAPGKGLEWVAGISYDGSIKYYADSVKGRLTISRDNSKNTLYLQMNSLRAEDTAIYYCAKHLTGGTTDYYYYAMDVWGQGTTVTVSS
VL: QSVLTQPPSASGTPGQRVTISCSGSTSNIGTNRYVHWYQQFPGTAPKLLIYGTDRRPSGVSDRFSGSKSGTSASLAISGLQSEDEADYYCAAWDDSLSAWVFGGGTKLTVL
B9: 43645p1.D7 (scFv, V domains shown)
VH: EVQLLESGGGLVQPGGSLRLSCAASGFTFSRNSMSWVRQAPGKGLEWVSTINSGSSYTYYADSVKGRFTISRDNSKNTLYLQMNSLRAEDTAVYYCAKDNCNGYHCYGMDVWGLGTTVTVSS
VL: QSVLTQPPSASGTPGQRVTISCSGSTSNVGDHYVHWYQQLPGTAPKLLIYKDDQRPSGVPDRFSGSKSGTSASLAISGLQSEDEADYYCSTWDNTLNGWVFGGGTKLTVL
B10: 43645p1.C9 (scFv, V domains shown)
VH: EVQLLESGGGLVQPGGSLRLSCAASGFTFSDFWMSWVRQAPGKGLEWVSSIINIQTYDYATYYADSVKGRFTISRDNSKNTLYLQMNSLRAEDTAIYYCAKDVAPGLPGGMDVWGQGTTVTVSS
VL: QSVLTQPPSASGTPGQRVTISCSGSNSNIRNNFVSWYQHLPGTAPKLLIYGNSQRPSGVPDRFSGSKSGTSASLAISGLQSEDEADYYCTSWDFSVSGWVFGGGTKLTVL
B11: 43645p1.F7 (scFv, V domains shown)
VH: EVQLLESGGGLVQPGGSLRLSCAASGFTFSDFWMSWVRQAPGKGLEWVSSIINIQTYDYATYYADSVKGRFTISRDNSKNTLYLQMNSLRAEDTAIYYCAKDVAPGLPGGMDVWGQGTTVTVSS
VL: QSVLTQPPSASGTPGQRVTISCSGSNSNIRNNFVSWYQHLPGTAPKLLIYGNSQRPSGVPDRFSGSKSGTSASLAISGLQSEDEADYYCTSWDFSVNGWVFGGGTKLTVL

Legend:
[1] = biological target: T1, human TIGIT on Jurkat cells (TIGIT/NFAT reporter Jurkat cells, BPS Bioscience #60538); Promega TIGIT Effector … (human, UniProt Q495A1 22-244); experiment: flow cytometry, TIGIT/NFAT Jurkat cells, 10 ug/ml
T1 construct: whole, on cells; Same protein on two bought Jurkat lines (flow cytometry: BPS; bioassay: Promega); also called hu TIGIT cells; cells expressing human TIGIT
T1 sequence (looked up): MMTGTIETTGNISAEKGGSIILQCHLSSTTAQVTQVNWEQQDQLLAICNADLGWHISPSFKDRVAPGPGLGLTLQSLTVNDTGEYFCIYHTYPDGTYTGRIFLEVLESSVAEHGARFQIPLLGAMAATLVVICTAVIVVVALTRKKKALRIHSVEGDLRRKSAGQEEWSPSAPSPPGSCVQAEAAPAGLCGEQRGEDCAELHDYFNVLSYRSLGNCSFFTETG

[2] = biological target: T2, his-tagged human TIGIT (Acro Biosystems #TIT-H52H3) (human, UniProt Q495A1 22-141); experiment: SPR (Carterra LSA), scFv-Fc captured, His-TIGIT analyte
T2 construct: Bought protein; also called His-tagged-TIGIT (human); not shown: his tag
T2 sequence (looked up): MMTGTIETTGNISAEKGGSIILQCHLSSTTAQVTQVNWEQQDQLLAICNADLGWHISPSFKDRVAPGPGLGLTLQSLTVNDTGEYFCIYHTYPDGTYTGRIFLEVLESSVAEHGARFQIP
Method: (§1) Binding affinities of anti-TIGIT antibodies to human, cyno, and murine TIGIT were measured by Surface Plasmon Resonance (SPR) on a Carterra LSA instrument. Goat anti-human Fc antibody was amine coupled to a HC30M chip. ScFv-Fc supernatants were diluted 30-fold with HBSTE and were captured by the anti-human Fc coupled HC30M chip. A 1:2 dilution series of his-tagged human TIGIT, starting at 400 nM, was injected onto the chip for binding. A dilution series was also carried out for cyno TIGIT and murine TIGIT. Data were analyzed using the Carterra™ Kinetics software.

[3] = biological target: T3, His-tagged cynomolgus monkey TIGIT (Acro Biosystems #TIT-05223) (cynomolgus monkey, UniProt A0A7N9I9V4 89-209); experiment: as above
T3 construct: Bought protein; also called cyno TIGIT; cynomolgus TIGIT; not shown: His tag
Method: as §1

[4] = biological target: T2, his-tagged human TIGIT (Acro Biosystems …); experiment: ELISA, coated His-TIGIT, 1 ug/ml
[5] = biological target: T4, his-tagged murine TIGIT (Acro Biosystems #TIT-M52E6) (murine, UniProt P86176 29-148, limits assumed); experiment: ELISA, coated His-TIGIT, 1 ug/ml
T4 construct: Bought protein; also called mouse his-tagged TIGIT; not shown: his tag
T4 sequence (looked up): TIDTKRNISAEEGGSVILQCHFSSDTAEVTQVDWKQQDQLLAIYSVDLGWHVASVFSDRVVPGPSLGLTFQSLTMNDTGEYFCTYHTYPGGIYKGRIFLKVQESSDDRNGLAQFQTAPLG

[6] = biological target: T3, His-tagged cynomolgus monkey TIGIT …; experiment: ELISA, coated His-TIGIT, 1 ug/ml
[7] = biological target: T1, human TIGIT on Jurkat cells (TIGIT/NFAT …); experiment: cell-based or functional assay

T3 sequence (A0A7N9I9V4 entry or part of it): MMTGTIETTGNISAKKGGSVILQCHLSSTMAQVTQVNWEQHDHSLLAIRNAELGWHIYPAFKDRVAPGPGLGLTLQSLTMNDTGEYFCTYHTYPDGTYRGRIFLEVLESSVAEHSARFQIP

Row | Binder | MFI [1] | Kd [2] | Kd [3] | Elisa OD450 [4] | Elisa OD450 [5] | Elisa OD450 [6] | max. signal (% of 22G2) [7]
1 | B1 | 6710 MFI | 0.383 nM | 3.69 nM | 1.49 OD450 | 0.046 OD450 | 0.817 OD450 | –
2 | B2 | 9000 MFI | 0.721 nM | 20 nM | 2.01 OD450 | 0.045 OD450 | 1.34 OD450 | 89 % of 22G2
3 | B3 | 8790 MFI | 0.0716 nM | – | 0.677 OD450 | 0.056 OD450 | 0.048 OD450 | 101 % of 22G2
4 | B4 | 8650 MFI | 0.0685 nM | – | 2.15 OD450 | 0.046 OD450 | 0.044 OD450 | 105 % of 22G2
5 | B5 | 9040 MFI | 0.0888 nM | – | 2.18 OD450 | 1.69 OD450 | 1.65 OD450 | 119 % of 22G2
6 | B6 | 9000 MFI | 1.08 nM | 18.8 nM | 2.23 OD450 | 0.046 OD450 | 1.6 OD450 | 113 % of 22G2
7 | B7 | 9090 MFI | 2.19 nM | 26.8 nM | 1.94 OD450 | 0.046 OD450 | 1.59 OD450 | 106 % of 22G2
8 | B8 | 8830 MFI | 0.354 nM | 2.62 nM | 2.07 OD450 | 0.046 OD450 | 1.79 OD450 | 115 % of 22G2
9 | B9 | 9660 MFI | 6.76 nM | 6.27 nM | 2.06 OD450 | 0.32 OD450 | 1.88 OD450 | 57 % of 22G2
10 | B10 | 16500 MFI | 0.195 nM | 23.5 nM | 1.86 OD450 | 0.065 OD450 | 1.39 OD450 | –
11 | B11 | 15400 MFI | 0.0741 nM | – | 1.97 OD450 | 0.489 OD450 | 1.52 OD450 | –
